{"source": "paper PMC9534960", "about": "“De Novo Design of an Androgen Receptor DNA Binding Domain‐Targeted peptide PROTAC for Prostate Cancer Therapy” (Advanced Science, 2022)", "binders": {"B1": {"name": "AR pep‐PROTAC drug (designed peptide PROTAC) (peptide)", "peptide": "YLCSSNNNRERDKFRRGGSGGTSFEQFWAWLWP", "notes": "flexible linker; Free peptide in ITC and fluorescence polarisation; also called AR DBD PROTAC; AR DBD PROTAC drug; source: synthetic peptide (solid‐phase peptide synthesis, preparative HPLC)"}}, "details_in_all_cases": "both partners purified", "key": {"[1]": {"biological_target": "T1, Androgen receptor splice variant‐7 (AR‐V7), recombinant from E. coli (UniProt P10275-3 1-644)", "T1 construct": "Plasmid bought from GenScript; also called pET‐28a (AR – V7); pET28‐AR‐V7; not shown: His tag (from the vector pET‐28a)", "T1 sequence (looked up)": "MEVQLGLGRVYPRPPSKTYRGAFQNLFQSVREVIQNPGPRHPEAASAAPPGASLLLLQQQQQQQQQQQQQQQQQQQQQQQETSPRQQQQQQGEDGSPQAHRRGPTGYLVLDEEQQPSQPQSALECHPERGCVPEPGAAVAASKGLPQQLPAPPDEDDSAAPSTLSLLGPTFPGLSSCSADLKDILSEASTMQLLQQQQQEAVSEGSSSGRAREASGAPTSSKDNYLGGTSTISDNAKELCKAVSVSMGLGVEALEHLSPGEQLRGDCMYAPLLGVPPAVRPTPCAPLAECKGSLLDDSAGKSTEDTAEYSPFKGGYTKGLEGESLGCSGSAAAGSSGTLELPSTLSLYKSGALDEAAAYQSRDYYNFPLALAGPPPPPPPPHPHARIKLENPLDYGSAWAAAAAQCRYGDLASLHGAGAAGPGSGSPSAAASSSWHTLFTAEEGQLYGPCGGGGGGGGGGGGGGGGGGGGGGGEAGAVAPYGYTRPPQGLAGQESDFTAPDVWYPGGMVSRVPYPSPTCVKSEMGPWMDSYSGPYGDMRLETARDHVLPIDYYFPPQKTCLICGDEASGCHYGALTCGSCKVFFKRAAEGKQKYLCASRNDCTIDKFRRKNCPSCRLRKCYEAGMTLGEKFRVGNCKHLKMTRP", "assay": "ITC; protein (around 20 µM, 0.2 ml) in the sample cell, peptide (around 200 µM) in the syringe; 25 °C; first injection 0.4 µl, then 19 injections of 2 µl"}, "MDMX": {"biological_target": "T2, MDMX (UniProt O15151 1-490)", "T2 construct": "MDMX; MDMX is not in the methods' list of proteins made in E. coli", "T2 sequence (looked up)": "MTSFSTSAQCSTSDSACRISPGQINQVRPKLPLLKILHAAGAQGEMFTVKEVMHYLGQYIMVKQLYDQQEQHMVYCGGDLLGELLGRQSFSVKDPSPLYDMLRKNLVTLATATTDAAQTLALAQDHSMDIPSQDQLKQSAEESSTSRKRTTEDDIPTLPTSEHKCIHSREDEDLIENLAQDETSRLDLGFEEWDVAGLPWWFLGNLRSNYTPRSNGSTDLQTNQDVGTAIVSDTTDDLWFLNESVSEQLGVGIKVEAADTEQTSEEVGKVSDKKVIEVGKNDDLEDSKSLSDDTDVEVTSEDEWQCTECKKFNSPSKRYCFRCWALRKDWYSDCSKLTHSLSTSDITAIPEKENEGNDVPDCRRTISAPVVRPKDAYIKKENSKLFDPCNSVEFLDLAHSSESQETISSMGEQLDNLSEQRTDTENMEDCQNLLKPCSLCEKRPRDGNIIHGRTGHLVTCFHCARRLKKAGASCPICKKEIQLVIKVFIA", "assay": "ITC; protein (around 20 µM, 0.2 ml) in the sample cell, peptide (around 200 µM) in the syringe; 25 °C; first injection 0.4 µl, then 19 injections of 2 µl"}, "[2]": {"biological_target": "T3, MDM2, recombinant from E. coli (UniProt Q00987 1-491)", "T3 construct": "E3 ligase MDM2; Plasmid bought from GenScript; also called E3 ligase MDM2; pET‐28a (MDM2)", "T3 sequence (Q00987 whole entry)": "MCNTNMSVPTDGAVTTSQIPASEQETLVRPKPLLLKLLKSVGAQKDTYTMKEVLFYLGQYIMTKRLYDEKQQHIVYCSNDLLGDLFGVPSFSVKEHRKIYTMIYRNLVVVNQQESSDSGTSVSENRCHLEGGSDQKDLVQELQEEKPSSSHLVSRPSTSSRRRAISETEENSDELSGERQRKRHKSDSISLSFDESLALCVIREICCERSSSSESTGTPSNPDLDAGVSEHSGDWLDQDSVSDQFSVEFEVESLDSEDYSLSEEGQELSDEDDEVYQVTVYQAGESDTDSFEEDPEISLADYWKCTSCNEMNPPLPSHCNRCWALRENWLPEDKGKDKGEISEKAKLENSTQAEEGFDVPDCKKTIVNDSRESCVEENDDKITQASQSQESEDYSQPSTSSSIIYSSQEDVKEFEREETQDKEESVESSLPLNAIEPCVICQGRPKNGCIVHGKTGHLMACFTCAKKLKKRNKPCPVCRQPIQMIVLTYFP", "assay": "ITC; protein (around 20 µM, 0.2 ml) in the sample cell, peptide (around 200 µM) in the syringe; 25 °C; first injection 0.4 µl, then 19 injections of 2 µl"}, "[3]": {"biological_target": "T4, AR DBD domain protein, labeled with rhodamine B (rhodamine B label)", "T4 chain": "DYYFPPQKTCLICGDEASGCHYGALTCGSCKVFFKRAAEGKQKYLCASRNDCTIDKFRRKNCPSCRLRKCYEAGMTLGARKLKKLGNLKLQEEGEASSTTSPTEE", "assay": "fluorescence polarisation; rhodamine B labeled AR DBD, 200 nM of AR DBD dimer in complex with DNA, rising AR pep‐PROTAC concentration; maximum FP taken as 100% dimer, minimum as monomer"}}, "note": "Values joined by “and” are separate entries in the source; they are usually repeats but may differ in a detail not shown here. Equal entries are not always repeated."}
{"binder": "B1", "values": [{"measurement": "Kd", "setting": "[1]", "result": "49.6 nM and 49.5 nM"}, {"measurement": "Kd", "setting": "MDMX", "result": 1430, "unit": "nM"}, {"measurement": "Kd", "setting": "[2]", "result": 12.2, "unit": "nM"}, {"measurement": "EC50", "setting": "[3]", "result": 1800, "unit": "nM"}]}
